# Measured values published in the Human Domainome abundance scans (Beltran et al. 2025).
# ± gives the uncertainty stated by the source.
# B1: COUP transcription factor 1, residues 83 to 159; numbered along this chain, P10589 (parent)
# chain: HIECVVCGDKSSGKHYGQFTCEGCKSFFKRSVRRNLTYTCRANRNCPIDQHHRNQCQYCRLKKCLKVGMRREAVQRG
# Variants of: B1
# Assay: abundance fitness (aPCA) (normalised: wild type 0, dead -1); higher = more abundant; growth selection in yeast, the domain comes from the species named
# Details: Homo sapiens
row,Variant,abundance fitness
1,Y16I,-0.297 ± 0.21
2,N45V,-0.058 ± 0.057
3,N45W,-0.049 ± 0.096
4,C64F,-0.903 ± 0.24
5,S11Q,0.01 ± 0.085
6,C21Y,-0.974 ± 0.4
7,C21R,-0.845 ± 0.095
8,K14V,0.115 ± 0.12
9,K10D,0.16 ± 0.077
10,V67K,-0.127 ± 0.046
11,R76A,-0.13 ± 0.045
12,R76Q,0.083 ± 0.055
13,R71N,-0.034 ± 0.062
14,R71P,0.023 ± 0.052
15,E3N,-0.222 ± 0.14
16,H51N,0.102 ± 0.13
17,H51G,0.034 ± 0.031
18,H51M,0.025 ± 0.066
19,H51P,-0.138 ± 0.077
20,N43G,0.051 ± 0.05
21,N43S,0.011 ± 0.064

row,Variant,abundance fitness
1,N43R,0.012 ± 0.051
2,E72I,-0.325 ± 0.085
3,E72G,-0.258 ± 0.038
4,E72Q,-0.319 ± 0.055
5,E72P,-0.418 ± 0.076
6,T39N,0.103 ± 0.19
7,T39D,0.12 ± 0.21
8,T39W,0.057 ± 0.1
9,H52C,-0.092 ± 0.061
10,F27T,-1.1 ± 0.26
11,F27H,-0.634 ± 0.39
12,F27A,-0.812 ± 0.11
13,F27R,-0.515 ± 0.071
14,F27G,-0.83 ± 0.093
15,R70N,0.071 ± 0.092
16,R70T,0.023 ± 0.048
17,R70G,-0.152 ± 0.033
18,R70C,-0.051 ± 0.067
19,R60E,-0.503 ± 0.06
20,R60A,-0.088 ± 0.038
21,A42T,-0.256 ± 0.15

row,Variant,abundance fitness
1,D49I,-0.199 ± 0.1
2,D49R,-0.313 ± 0.056
3,G8T,-0.237 ± 0.19
4,G8M,-0.078 ± 0.12
5,G8Q,0.146 ± 0.1
6,K66S,0.074 ± 0.036
7,K66A,0.003 ± 0.037
8,Q75C,-0.07 ± 0.055
9,Q75P,0.034 ± 0.058
10,H15G,-0.101 ± 0.093
11,H15P,0.125 ± 0.16
12,H15E,0.202 ± 0.26
13,H15S,-0.212 ± 0.12
14,H15R,-0.364 ± 0.14
15,H15T,-0.28 ± 0.25
16,H15Y,-0.144 ± 0.18
17,S26W,0.014 ± 0.093
18,S26T,0.139 ± 0.1
19,S26E,0.144 ± 0.079
20,S26Q,0.247 ± 0.08
21,S26K,0.321 ± 0.15

row,Variant,abundance fitness
1,S26M,0.298 ± 0.27
2,S26P,-0.812 ± 0.34
3,V5C,-0.027 ± 0.13
4,V5R,0.295 ± 0.062
5,Y38N,-0.772 ± 0.27
6,Y38E,-0.226 ± 0.11
7,Y38F,-0.089 ± 0.15
8,L61H,-0.668 ± 0.12
9,L61T,-0.771 ± 0.092
10,H1D,0.6 ± 0.17
11,H1N,0.07 ± 0.29
12,H1V,-0.035 ± 0.15
13,V32C,-0.798 ± 0.2
14,V32L,-0.26 ± 0.066
15,V32W,-0.784 ± 0.12
16,R44N,0.11 ± 0.075
17,R44A,0.077 ± 0.036
18,R44P,-0.405 ± 0.08
19,K29Q,0.03 ± 0.067
20,K29C,-0.705 ± 0.2
21,S31Q,0.053 ± 0.087
